From US8597645

Biological target: Caspase-8 (endogenous, in melanocytes and melanoma cells) (human) (UniProt Q14790)
Assay: cell-based or functional assay

Caspase-8 (endogenous, in melanocytes and melanoma cells) (human), sequence (Q14790 whole entry): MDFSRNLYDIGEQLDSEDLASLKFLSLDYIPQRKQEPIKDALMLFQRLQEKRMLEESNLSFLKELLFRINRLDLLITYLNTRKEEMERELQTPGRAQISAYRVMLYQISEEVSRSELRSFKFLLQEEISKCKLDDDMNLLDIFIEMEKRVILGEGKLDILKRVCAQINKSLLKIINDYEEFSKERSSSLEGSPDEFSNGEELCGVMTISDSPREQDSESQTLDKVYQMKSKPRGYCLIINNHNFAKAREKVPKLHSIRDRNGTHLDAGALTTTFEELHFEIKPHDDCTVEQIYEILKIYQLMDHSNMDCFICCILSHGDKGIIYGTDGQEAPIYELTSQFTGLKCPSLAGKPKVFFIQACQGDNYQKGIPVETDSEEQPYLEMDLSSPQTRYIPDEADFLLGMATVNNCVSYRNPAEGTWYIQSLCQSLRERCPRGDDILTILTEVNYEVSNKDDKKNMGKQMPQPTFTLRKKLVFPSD

“Cell permeable caspase inhibitor containing the sequence DEVD (from UniProt P08620 7-22) (peptide)” gave a Concentration needed to block ET-1 induced E-cadherin down-regulation, relative to the 'IETD' inhibitor of 10 fold.
